US20040029178A1, “Novel g protein-coupled receptor proteins and dnas thereof” (priority 2000, published 2004)
Ends that are not written are not given here. * marks the point of attachment. 125I = [125I]*

Tests used:
TGR26 [1] = molecular target: T1, TGR26 (Rattus norvegicus, UniProt Q56UD9); assay: Inhibition of intracellular cAMP production using TGR26 expressing CHO cells; type: cell-based; settings: 2 μM forskolin, various concentrations
T1 construct: expressed in transfected cells; whole cells in A1, membrane fraction in A2 and A3
T1 sequence (Q56UD9 1-329): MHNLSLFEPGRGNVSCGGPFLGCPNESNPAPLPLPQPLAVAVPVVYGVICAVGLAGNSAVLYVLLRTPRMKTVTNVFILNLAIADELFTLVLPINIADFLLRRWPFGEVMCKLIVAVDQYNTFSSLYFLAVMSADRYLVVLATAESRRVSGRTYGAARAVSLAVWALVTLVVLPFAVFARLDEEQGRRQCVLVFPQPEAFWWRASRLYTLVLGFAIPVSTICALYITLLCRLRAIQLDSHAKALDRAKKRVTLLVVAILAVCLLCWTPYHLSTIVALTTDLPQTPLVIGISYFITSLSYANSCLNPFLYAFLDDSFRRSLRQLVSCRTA
Description: TGR26 expressing CHO cells prepared in Example 3 were seeded on 24-well plate at 5×10^4 cells/well and cultivated for 48 hours. The cells were washed with MEMα buffer (pH 7.4) containing 0.2 mM 3-isobutyl-methylxanthine, 0.05% BSA (bovine serum albumine) and 20 mM HEPES [hereafter, MEMα buffer (pH 7.4) containing 0.2 mM 3-isobutyl-methylxanthine, 0.05% BSA (bovine serum albumine) and 20 mM HEPES may be referred to as reaction buffer]. Then, 0.5 ml of the reaction buffer was added to the cells and the suspension was incubated for 30 minutes in the incubator. After removal of the reaction buffer and newly adding 0.25 ml of the reaction buffer to the cells, an appropriate concentration of sample in DMSO solution and 0.25 ml of the reaction buffer containing 2 μM forskolin were added to the cells and the mixture was reacted at 37° C. for 30 minutes. For termination of the reaction, 100 μl of 20% perchloric acid was added. Subsequently, the mixture was stood on ice for an hour to extract intracellular cAMP. The cAMP level in the extract was measured using the cAMP EIA Kit (Amersham Pharmacia Biotech).
The human homologue of GPR8 ligand peptide consisting of 23 residues represented by […], which was obtained in Reference Example 12 (hereafter, sometimes referred to as hGPR8L (1-23)), or the human homologue of GPR8 ligand peptide consisting of 30 residues represented by […], which was obtained in Reference Example 13 (hereafter, sometimes referred to as hGPR8L (1-30)) was administered at various concentrations to […] TGR26 expressing CHO cells by the method described in Example 4, and an inhibiting activity of intracellular cAMP production was measured.
In the figure, when an amount subtracted intracellular cAMP level with the reaction buffer from intracellular cAMP level with the reaction buffer containing forskolin is indicated as 100%, the inhibiting activity of cAMP synthesis is indicated as an amount subtracted intracellular cAMP level with hGPR8L (1-23) or hGPR8L (1-30) from intracellular cAMP level with the reaction buffer by representation of percentage (%).

TGR26 [2] = molecular target: T1, TGR26; assay: GTPγS binding activity using a membrane fraction of TGR26 expressing CHO cells; type: biochemical; settings: various concentrations
Description: Promoting activity for [^35S]-guanosine 5′-(γ-thio) triphosphate (GTPγS) binding to a membrane fraction of TGR26 expressing cells was assayed in accordance with the following method.
To 1×10^8 of TGR26 expressing CHO cells, 10 ml of homogenating buffer (10 mM NaHCO3, 5 mM EDTA, 0.5 mM PMSF (phenylmethylsulfonyl fluoride), 1 μg/ml Pepstatin, 4 μg/ml E-64, 20 μg/ml Leupeptin) was added, and the cells were disrupted using Polytron (12,000 rpm, 1 minute). Supernatant was obtained from the disrupted cell suspension by centrifugation (1,000 g, 15 minutes). In addition, the supernatant was ultracentrifuged (Beckman Type 30 rotor, 30,000 rpm, 1 hour), and precipitate obtained was kept as a membrane fraction of TGR26 expressing CHO cells.
The membrane fraction of TGR26 expressing CHO cells was diluted with membrane dilution buffer (50 mM Tris HCl buffer (pH 7.4), 5 mM MgCl2, 150 mM NaCl, 1 μM GDP, 0.1% BSA) to prepare a cell membrane fraction solution for assay at 30 μg/ml of protein concentration. To 200 μl of membrane fraction solution for assay, 2 μl of 50 nM [^35S]-guanosine 5′-(γ-thio) triphosphate (NEN) and 2 μl of sample/DMSO solution having an appropriate concentration were added. Then the mixture was incubated at 25° C. for one hour. The mixture was filtrated, and further the filter was washed twice with 1.5 ml of washing buffer (50 mM Tris HCl buffer (pH 7.4), 5 mM MgCl2, 1 mM EDTA, 0.1% BSA). Finally, a radioactivity on the filter was determined by liquid scintillation counter.
Various concentration of hGPR8L (1-23) or hGPR8L (1-30) was mixed with a membrane fraction of the TGR26 expressing cell in accordance with the method described in Example 6, and a promoting activity of GTPγS binding was assayed.

TGR26 [3] = molecular target: T1, TGR26; assay: Receptor binding using [125I-Tyr10]-hGPR8L (1-23) and membrane fraction of TGR26 expressing CHO cells; settings: membrane fraction of TGR26 expressing cells; in words
Description: Using [^125I-Tyr^10]-hGPR8L (1-23) prepared by the method described in Reference Example 15 and a cell membrane fraction prepared from TGR26 expressing cells as described in Example 6, a receptor binding assay was carried out as follows.
(§1) Cell membrane fraction prepared from TGR26 expressing cells was diluted to various concentration with assay buffer (25 mM Tris-HCl, 5 mM EDTA, 0.05% CHAPS (3-[(3-Cholamidopropyl) Dimethyl-Ammonio]-1-Propanesulfonate), 0.1% BSA, 0.5 mM PMSF, 1 μg/ml Pepstatin, 20 μg/ml Leupeptin, 4 μg/ml E-64, pH 7.4), and 200 μl each of the diluent was dispensed into polypropilene test tube (Falcon 2053). In order to determine an amount of maximum binding, 2 μl of DMSO and 2 μl of 7 nM [^125I-Tyr^10]-hGPR8L (1-23) were added to the membrane fraction solution. Further, in order to determine a non-specific binding, 2 μl of 100 μM hGPR8L (1-23)/DMSO solution and 2 μl of 7 nM [^125I-Tyr^10]-hGPR8L (1-23) were added to the membrane fraction solution. The reaction was done at 25° C. for 75 minutes, and the reaction mixture was filtered by suction filtration using Whatman glassfilter (GF-F) treated with polyethyleneimine. In addition, the filter was washed twice with 1.5 ml of washing buffer (25 mM Tris-HCl, 5 mM EDTA, 0.05% CHAPS, 0.1% BSA, pH 7.4). After filtration, a radioactivity remaining on the filter was counted using γ-counter, and an amount of specific binding was estimated by subtracting an amount of non-specific binding from an amount of maximum binding.
Where the concentration of membrane fraction was set to 3 μg/ml, an inhibition for the specific binding of [125I-Tyr^10]-hGPR8L (1-23) to the membrane fraction of TGR26 expressing cells by hGPR8L (1-23) and hGPR8L (1-30) was investigated.
A receptor binding activity of human- and porcine-homologue derivatives of GPR8 ligand peptide obtained in the reference examples was measured using a membrane fraction of TGR26 expressing CHO cells and [^125I-Tyr^10]-hGPR8L (1-23) by the method described in Example 8. The receptor binding activity is represented by concentration of 50% inhibition for binding (IC50 value).

[4] = molecular target: T2, TGR26, the rat-derived novel G protein-coupled receptor protein (rat, UniProt Q56UD9 1-329); assay: competition with [125I-Tyr10]-hGPR8L (1-23) for membrane fraction of TGR26 expressing CHO cells
T2 construct: Expressed in CHO dhfr- cells from pAK-rGPR7; also called rat TGR26; TGR26 receptor
T2 sequence: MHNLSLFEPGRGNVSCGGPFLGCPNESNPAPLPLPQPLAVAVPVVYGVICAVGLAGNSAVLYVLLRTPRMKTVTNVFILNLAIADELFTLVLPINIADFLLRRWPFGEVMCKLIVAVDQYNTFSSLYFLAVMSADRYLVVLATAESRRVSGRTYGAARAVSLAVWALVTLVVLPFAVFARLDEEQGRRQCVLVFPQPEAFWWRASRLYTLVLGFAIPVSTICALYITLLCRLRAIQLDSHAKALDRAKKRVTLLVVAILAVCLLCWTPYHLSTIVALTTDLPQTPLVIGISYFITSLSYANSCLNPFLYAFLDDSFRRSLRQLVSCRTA
Description: (§2) Using [¹²⁵I-Tyr¹⁰]-hGPR8L (1-23) prepared by the method described in Reference Example 15 and a cell membrane fraction prepared from TGR26 expressing cells as described in Example 6, a receptor binding assay was carried out as follows.
as §1, with “[¹²⁵I-Tyr¹⁰]-hGPR8L” for “[^125I-Tyr^10]-hGPR8L”, “In addition, the filter was washed twice with 1.5 ml of washing buffer (25 mM Tris-HCl, 5 mM EDTA, 0.05% CHAPS, 0.1% BSA, pH 7.4).” left out, “binding. […]” for “binding.”

[5] = molecular target: T2, TGR26, the rat-derived novel G …; assay: radioligand binding to membrane fraction of TGR26 expressing CHO cells, filtration, gamma counting
Description: as §2
as §1, with “[¹²⁵I-Tyr¹⁰]-hGPR8L” for “[^125I-Tyr^10]-hGPR8L”, “In addition, the filter was washed twice with 1.5 ml of washing buffer (25 mM Tris-HCl, 5 mM EDTA, 0.05% CHAPS, 0.1% BSA, pH 7.4).” left out, “binding. […]” for “binding.”

Molecule: Trp-Tyr-Lys-His-Val-Ala-Ser -Pro-Arg-Tyr-His-Thr-Val-Gly-Arg-Ala-Ala-Gly-Leu-Leu-Met-Gly-Leu [SEQ ID NO: 73]
- inhibiting activity of intracellular cAMP production (TGR26 [1]): intracellular cAMP production of the TGR26 expressing CHO cells was inhibited depending on the concentration
- promoting activity of GTPγS binding (TGR26 [2]): GTPγS binding of the TGR26 expressing CHO cells was promoted depending on the concentration
- inhibition for the specific binding of [125I-Tyr10]-hGPR8L (1-23) (TGR26 [3]): can also be confirmed

Molecule: WYKHVASPRYHTVGRAAGLLMGL-OH (also called human GPR8 ligand (1-23)) [human homologue of GPR8 ligand peptide consisting of 23 residues, hGPR8L (1-23)]
- IC50 [4]: 0.12 nM

Molecule: WYKHVASPRY(125I)HTVGRAAGLLMGL-OH [[^125I-Tyr^10]-hGPR8L (1-23)]
- binding result [5]: binds
